Laboratory results as given in US20230340143A1 (published 2023).

T1: human CD39 expressed at the cell surface (human, UniProt P49961 1-510)
T1 construct: On CHO transfectants, HEK-293T transfectants or endogenous on Ramos cells; also called huCD39; CHO-huCD39
T1 sequence: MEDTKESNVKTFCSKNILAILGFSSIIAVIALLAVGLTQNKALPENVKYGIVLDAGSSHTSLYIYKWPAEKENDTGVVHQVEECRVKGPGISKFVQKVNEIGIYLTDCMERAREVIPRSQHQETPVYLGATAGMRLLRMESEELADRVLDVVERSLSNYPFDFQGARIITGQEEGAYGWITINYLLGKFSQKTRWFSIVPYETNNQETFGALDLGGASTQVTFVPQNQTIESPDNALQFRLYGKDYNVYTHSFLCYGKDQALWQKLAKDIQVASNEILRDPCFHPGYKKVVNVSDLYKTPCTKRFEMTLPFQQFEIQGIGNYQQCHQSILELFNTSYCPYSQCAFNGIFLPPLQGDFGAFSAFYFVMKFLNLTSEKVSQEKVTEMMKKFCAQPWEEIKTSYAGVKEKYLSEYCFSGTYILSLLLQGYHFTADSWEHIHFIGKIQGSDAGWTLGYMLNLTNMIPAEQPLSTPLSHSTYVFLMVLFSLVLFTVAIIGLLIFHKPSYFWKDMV

T2: CD39 mutant 5 (human, UniProt P49961 1-510)
T2 construct: Expressed on transfected HEK-293T cells; also called M5
T2 chain: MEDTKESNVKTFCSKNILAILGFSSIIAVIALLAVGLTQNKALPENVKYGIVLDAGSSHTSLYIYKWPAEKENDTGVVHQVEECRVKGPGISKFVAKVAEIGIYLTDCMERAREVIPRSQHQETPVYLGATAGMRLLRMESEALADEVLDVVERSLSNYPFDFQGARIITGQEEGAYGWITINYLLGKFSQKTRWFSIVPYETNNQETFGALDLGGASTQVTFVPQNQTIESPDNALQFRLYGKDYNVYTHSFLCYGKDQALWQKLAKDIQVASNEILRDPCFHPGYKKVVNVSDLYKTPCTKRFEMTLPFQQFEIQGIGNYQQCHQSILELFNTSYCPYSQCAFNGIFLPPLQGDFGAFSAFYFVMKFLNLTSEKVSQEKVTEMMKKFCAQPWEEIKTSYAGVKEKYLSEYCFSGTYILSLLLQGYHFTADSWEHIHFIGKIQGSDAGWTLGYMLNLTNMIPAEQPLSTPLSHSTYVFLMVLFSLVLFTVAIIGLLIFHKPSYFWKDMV

T3: CD39 mutant 19 (human, UniProt P49961 1-510)
T3 construct: Expressed on transfected HEK-293T cells; also called M19
T3 chain: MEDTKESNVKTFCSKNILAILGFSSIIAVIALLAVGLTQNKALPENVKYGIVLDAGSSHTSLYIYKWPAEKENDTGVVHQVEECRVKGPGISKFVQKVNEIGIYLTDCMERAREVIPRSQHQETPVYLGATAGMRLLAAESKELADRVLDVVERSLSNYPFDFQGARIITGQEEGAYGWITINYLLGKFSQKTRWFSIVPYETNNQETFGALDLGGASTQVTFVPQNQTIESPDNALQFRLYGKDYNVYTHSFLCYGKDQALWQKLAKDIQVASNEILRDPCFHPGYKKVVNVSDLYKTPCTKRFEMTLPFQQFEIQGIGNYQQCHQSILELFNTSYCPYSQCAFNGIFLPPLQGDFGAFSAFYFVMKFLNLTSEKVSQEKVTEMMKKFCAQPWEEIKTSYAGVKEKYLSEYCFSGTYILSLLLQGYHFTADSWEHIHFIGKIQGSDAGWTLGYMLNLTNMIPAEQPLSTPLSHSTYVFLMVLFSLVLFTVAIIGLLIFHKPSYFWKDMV

T4: Human CD39-L1 (human, UniProt Q9Y5L3 1-495)
T4 construct: Recombinant protein coated in ELISA; also called NTPDase2; ENTPD2
T4 sequence: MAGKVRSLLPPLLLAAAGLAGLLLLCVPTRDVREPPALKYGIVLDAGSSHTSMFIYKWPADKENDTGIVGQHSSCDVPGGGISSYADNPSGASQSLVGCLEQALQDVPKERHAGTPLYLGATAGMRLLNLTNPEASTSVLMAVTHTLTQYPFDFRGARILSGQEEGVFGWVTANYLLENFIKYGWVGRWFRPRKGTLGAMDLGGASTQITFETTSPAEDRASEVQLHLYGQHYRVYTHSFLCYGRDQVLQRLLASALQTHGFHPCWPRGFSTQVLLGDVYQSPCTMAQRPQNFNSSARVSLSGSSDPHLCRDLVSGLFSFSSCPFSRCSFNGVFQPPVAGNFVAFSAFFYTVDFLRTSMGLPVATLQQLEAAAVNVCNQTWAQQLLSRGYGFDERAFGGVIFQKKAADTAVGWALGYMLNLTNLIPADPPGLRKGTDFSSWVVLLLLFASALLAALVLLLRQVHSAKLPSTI


Legend:
[1] = biological target: T1, human CD39 expressed at the cell surface; experiment: flow cytometry screen on CHO expressing huCD39 against wild type CHO
Procedure: In initial immunization protocols, the primary screen involved testing supernatant (SN) of growing clones by flow cytometry using wild type CHO and CHO expressing huCD39 cell lines. Cells were stained with 0.1 µM and 0.005 µM CFSE, respectively. […] For antibodies that bound huCD39, supernatants were then screened for inhibition of the enzymatic activity of soluble CD39 using the screening assay developed and described above (Methods).
In view of the absence of antibodies able to inhibit soluble CD39, a further immunization was carried out with a screening protocol designed to favor the generation of antibodies that bind the active site of CD39 as identified by the epitope of antibody BY40. Briefly, the primary screen involved testing supernatant (SN) of growing clones by flow cytometry using wild type CHO and CHO expressing huCD39 cell lines, as in the preceding immunizations, followed by screening for loss of binding Hek-293T cells expressing CD39 mutant 5, compared to wild-type CD39, as shown in Table 1. Mutant 5 has substitutions at residues Q96, N99, E143 and R147.

[2] = biological target: T2, CD39 mutant 5; experiment: flow cytometry on HEK-293T cells expressing mutant 5
Procedure: (§1) In order to define the epitopes of the further anti-CD39 antibodies of Example 5, they were tested for loss of binding to the panel of CD39 mutants as described in Example 1 and Table 1. Mutants were transfected in Hek-293T cells, as shown in the table 1, using numbering of SEQ ID NO: 1.Dose-ranges of test antibodies (10 - 2.5 - 0.625 - 0.1563 - 0.0391 - 0.0098 - 0.0024 - 0.0006 µg/ml) are tested on the 20 generated mutants by flow cytometry.

[3] = biological target: T3, CD39 mutant 19; experiment: flow cytometry on HEK-293T cells expressing mutant 19
Procedure: as §1

[4] = biological target: T4, Human CD39-L1; experiment: ELISA, recombinant isoform coated
Procedure: Wells were washed in TBS Tween 20, and further saturated 2H at RT in TBS Blocking buffer. Dose range concentration of primary antibody was incubated in TBS blocking buffer for 2 h at RT. Wells were washed in TBS Tween 20. […] Optical density was measured on Enspire™ at OD=450.

[5] = biological target: T2, CD39 mutant 5; experiment: flow cytometry screen on HEK-293T cells expressing CD39 mutant 5

Row | Binder | binding result [1] | binding result [2] | binding result [3] | binding result [4] | binding result [5]
1 | antibody I-395 (antibody, V domains shown, Hybridoma antibody purified on protein A) VH: EVQLQQSGPELVKPGASVRMSCKASGYTFTDYNMHWVKKNHGKGLEWIGYINPNNGGTTYNQKFKGKATLTVNTSSKTAYMELRSLTSEDSAVYYCTRGGTRFASWGQGTLVTVSA VL: not shown | binds | – | – | – | –
2 | antibody I-396 (antibody, V domains shown, Hybridoma antibody purified on protein A) VH: EVQLQQSGAELVKPGASVKLSCIVSGFNIKDTYINWVKQRPEQGLEWIGRIDPANGNTKYDPKFQGKATMTSDTSSNTAYLHLSSLTSDDSAVYYCARWGYDDEEADYFDSWGQGTTLTVSS VL: not shown | binds | binds | binds | – | –

Continued, values first:

Row | binding result [1] | binding result [2] | binding result [3] | binding result [4] | binding result [5] | Binder
3 | – | – | – | no binding | binds | antibody I-394 (antibody, V domains shown, Mouse hybridoma antibody; also produced with human IgG1 constant domains carrying L234A/L235E/G237A/A330S/P331S (Kabat EU) and a huCk constant domain) VH: EVQLQQSGPELVKPGASVKMSCKASGYTFTDYNMHWVKQSHGRTLEWIGYIVPLNGGSTFNQKFKGRATLTVNTSSRTAYMELRSLTSEDSAAYYCARGGTRFAYWGQGTLVTVSA VL: not shown
4 | binds | – | – | – | – | antibody I-399 (antibody, V domains shown, Hybridoma antibody purified on protein A) VH: PVQLQQPGAEVVMPGASVKLSCKASGYTFTSFWMNWMRQRPGQGLEWIGEIDPSDFYTNSNQRFKGKATLTVDKSSSTAYMQLSSLTSEDSAVYFCARGDFGWYFDVWGTGTSVTVSS VL: EIVLTQSPTTMTSSPGEKITFTCSASSSINSNYLHWYQQKPGFSPKLLIYRTSNLASGVPTRFSGSGSGTSYSLTIGTMEAEDVATYYCQQGSSLPRTFGGGTKLEIK
